These results are taken from IntAct's records for PubMed 23104057.

The labels stand for the following.
B1: Semaphorin-3A (Mus musculus), O08665 (parent)
chain: MGWFTGIACLFWGVLLTARANYANGKNNVPRLKLSYKEMLESNNVITFNGLANSSSYHTFLLDEERSRLYVGAKDHIFSFNLVNIKDFQKIVWPVSYTRRDECKWAGKDILKECANFIKVLEAYNQTHLYACGTGAFHPICTYIEVGHHPEDNIFKLQDSHFENGRGKSPYDPKLLTASLLIDGELYSGTAADFMGRDFAIFRTLGHHHPIRTEQHDSRWLNDPRFISAHLIPESDNPEDDKVYFFFRENAIDGEHSGKATHARIGQICKNDFGGHRSLVNKWTTFLKARLICSVPGPNGIDTHFDELQDVFLMNSKDPKNPIVYGVFTTSSNIFKGSAVCMYSMSDVRRVFLGPYAHRDGPNYQWVPYQGRVPYPRPGTCPSKTFGGFDSTKDLPDDVITFARSHPAMYNPVFPINNRPIMIKTDVNYQFTQIVVDRVDAEDGQYDVMFIGTDVGTVLKVVSVPKETWHDLEEILLEEMTVFREPTTISAMELSTKQQQLYIGSTAGVAQLPLHRCDIYGKACAECCLARDPYCAWDGSSCSRYFPTAKRRTRRQDIRNGDPLTHCSDLQHHDNHHGPSLEERIIYGVENSSTFLECSPKSQRALVYWQFQRRNEDRKEEIRMGDHIIRTEQGLLLRSLQKKDSGNYLCHAVEHGFMQTLLKVTLEVIDTEHLEELLHKDDDGDGSKIKEMSSSMTPSQKVWYRDFMQLINHPNLNTMDEFCEQVWKRDRKQRRQRPGHSQGSSNKWKHMQESKKGRNRRTHEFERAPRSV
B2: Neuropilin-1 (Mus musculus), P97333 (parent)
chain: MERGLPLLCATLALALALAGAFRSDKCGGTIKIENPGYLTSPGYPHSYHPSEKCEWLIQAPEPYQRIMINFNPHFDLEDRDCKYDYVEVIDGENEGGRLWGKFCGKIAPSPVVSSGPFLFIKFVSDYETHGAGFSIRYEIFKRGPECSQNYTAPTGVIKSPGFPEKYPNSLECTYIIFAPKMSEIILEFESFDLEQDSNPPGGMFCRYDRLEIWDGFPEVGPHIGRYCGQKTPGRIRSSSGVLSMVFYTDSAIAKEGFSANYSVLQSSISEDFKCMEALGMESGEIHSDQITASSQYGTNWSVERSRLNYPENGWTPGEDSYKEWIQVDLGLLRFVTAVGTQGAISKETKKKYYVKTYRVDISSNGEDWISLKEGNKAIIFQGNTNPTDVVLGVFSKPLITRFVRIKPVSWETGISMRFEVYGCKITDYPCSGMLGMVSGLISDSQITASNQADRNWMPENIRLVTSRTGWALPPSPHPYTNEWLQVDLGDEKIVRGVIIQGGKHRENKVFMRKFKIAYSNNGSDWKTIMDDSKRKAKSFEGNNNYDTPELRTFSPLSTRFIRIYPERATHSGLGLRMELLGCEVEAPTAGPTTPNGNPVDECDDDQANCHSGTGDDFQLTGGTTVLATEKPTIIDSTIQSEFPTYGFNCEFGWGSHKTFCHWEHDSHAQLRWSVLTSKTGPIQDHTGDGNFIYSQADENQKGKVARLVSPVVYSQSSAHCMTFWYHMSGSHVGTLRVKLRYQKPEEYDQLVWMVVGHQGDHWKEGRVLLHKSLKLYQVIFEGEIGKGNLGGIAVDDISINNHISQEDCAKPTDLDKKNTEIKIDETGSTPGYEGEGEGDKNISRKPGNVLKTLDPILITIIAMSALGVLLGAVCGVVLYCACWHNGMSERNLSALENYNFELVDGVKLKKDKLNPQSNYSEA
partner: B1 chain
B3: Neuropilin-1 (Mus musculus), P97333 (parent)
chain: B2 chain
B4: Plexin-A2 (Mus musculus), P70207 (parent)
chain: MEQRRFYLRAMQADNLSVVLLSVAWLLLARGTTGMPQYSTFHSENRDWTFNHLTVHRRTGAVYVGAINRVYKLTGNLTIQVAHKTGPEEDNKACYPPLIVQPCSEVLTLTNNVNKLLIIDYSENRLLACGSLYQGVCKLLRLDDLFILVEPSHKKEHYLSSVNKTGTMYGVIVRSEGEDGKLFIGTAVDGKQDYFPTLSSRKLPRDPESSAMLDYELHSDFVSSLIKIPSDTLALVSHFDIFYIYGFASGGFVYFLTVQPETPDGMAINSAGDLFYTSRIVRLCKDDPKFHSYVSLPFGCTRAGVEYRLLQAAYLAKPGEALAQAFNISSDEDVLFAIFSKGQKQYHHPPDDSALCAFPIRAINLQIKERLQSCYHGEGNLELNWLLGKDVQCTKAPVPIDDNFCGLDINQPLGGSTPVEGLTLYTTSRDRLTSVASYVYNGYSVVFVGTKSGKLKKIRADGPPHGGVQYEMVSVFKDGSPILRDMAFSINQLYLYVMSERQVTRVPVESCEQYTTCGECLSSGDPHCGWCALHNMCSRRDKCQRAWEANRFAASISQCMSLEVHPNSISVSDHSRLLSLVVNDAPNLSEGIACAFGNLTEVEGQVSGSQVICISPGPKDVPVIPLDQDWFGLELQLRSKETGKIFVSTEFKFYNCSAHQLCLSCVNSAFRCHWCKYRNLCTHDPTTCSFQEGRINVSEDCPQLVPTEEILIPVGEVKPITLKARNLPQPQSGQRGYECVLSIQGAVHRVPALRFNSSSVQCQNSSYQYDGMDISNLAVDFAVVWNGNFIIDNPQDLKVHLYKCAAQRESCGLCLKADHKFECGWCSGERRCTLHQHCPSTSSPWLDWSSHNVKCSNPQITEILTVSGPPEGGTRVTIHGVNLGLDFSEIAHHVQVAGVPCTPIPGEYIIAEQIVCEMGHAVIGTTSGPVRLCIGECKPEFMTKSHQQYTFVNPSVLSLSPIRGPESGGTMVTITGHYLGAGSSVAVYLGNQTCEFYGRSMNEIVCVSPPSSNGLGPVPVSVSVDRARVDSSLQFEYIDDPRVQRIEPEWSITSGHTPLTITGFNLDVIQEPRVRVKFNGKESVNVCTVVNTTTLTCLAPSLTSDYRPGLDTVERPDEFGFLFNNVQSLLIYNDTKFIYYPNPTFELLSPTGILDQKPGSPIILKGKNLCPPASGGAKLNYTVMIGETPCTVTVSETQLLCEPPNLTGQHKVMVHVGGMVFSPGSVSVISDSLLTLPAIISIAAGGSLLLIIVIIVLIAYKRKSRENDLTLKRLQMQMDNLESRVALECKEAFAELQTDINELTSDLDRSGIPYLDYRTYAMRVLFPGIEDHPVLRELEVQGNGQQHVEKALKLFAQLINNKVFLLTFIRTLELQRSFSMRDRGNVASLIMTGLQGRLEYATDVLKQLLSDLIDKNLENKNHPKLLLRRTESVAEKMLTNWFAFLLHKFLKECAGEPLFMLYCAIKQQMEKGPIDAITGEARYSLSEDKLIRQQIEYKTLILNCVNPDNENSPEIPVKVLNCDTITQVKEKILDAVYKNVPYSQRPRAVDMDLEWRQGRIARVVLQDEDITTKIEGDWKRLNTLMHYQVSDRSVVALVPKQTSSYNIPASASISRTSISRYDSSFRYTGSPDSLRSRVPMITPDLESGVKVWHLVKNHDHGDQKEGDRGSKMVSEIYLTRLLATKGTLQKFVDDLFETLFSTVHRGSALPLAIKYMFDFLDEQADRHSIHDTDVRHTWKSNCLPLRFWVNVIKNPQFVFDIHKGSITDACLSVVAQTFMDSCSTSEHRLGKDSPSNKLLYAKDIPSYKNWVERYYADIAKLPAISDQDMNAYLAEQSRLHATEFNMLSALNEIYSYVSKYSEELIGALEQDEQARRQRLAYKVEHLINAMSIES

In the first test the parent is B1. The conditions noted are these: with nrp1_mouse Nrp1, P97333.
With L353N;P355S, the “effect of a mutation on the interaction” value is recorded as “decreasing interaction strength”.

Variants of B2 are the subject of another test. Conditions: with sem3a_mouse Sema3a.
Take P73A;H74S: the “effect of a mutation on the interaction” value was “disrupting interaction strength”.

Variants of B3 are the subject of the next test. The conditions noted are these: with plxa2_mouse Plxna2, P70207.
On to P73A;H74S, for which the “effect of a mutation on the interaction” value is listed as “disrupting interaction strength”.

The variants in the next test derive from B4. Conditions: with nrp1_mouse Nrp1, P97333.
Take F275N: the “effect of a mutation on the interaction” value was “decreasing interaction strength”.
